According to patent publication US7572450:
Side chains are listed from the residue outwards. Ends that are not written are not given here. maleimide = maleimide-activated rabbit IgG carrier, to which the peptide is conjugated through its cysteine; rabbit IgG = rabbit IgG carrier (maleimide-activated), conjugated to the peptide

Molecular target: AD7C-NTP neural thread protein (purified recombinant AD7C-NTP)
Experiment: cell-based or functional assay

**Q.** Which reduction in tissue necrosis (rat injection sites, histopathology at 24 hours) does the source give for LHARLCLANFCGRNRV (also: conjugated through a cysteine to maleimide-activated rabbit IgG) [Harlil sequence NTP-1] here?
**A.** Its reduction in tissue necrosis (rat injection sites, histopathology at 24 hours) is over 95%.

**Q.** Which reduction in tissue necrosis (rat injection sites, histopathology at 24 hours) does the source give for C([maleimide-rabbit IgG])ARYRTGHHARLM [Harlil sequence NTP-3] here?
**A.** Its reduction in tissue necrosis (rat injection sites, histopathology at 24 hours) is over 95%.

**Q.** DNTHHARLIL (also: conjugated to maleimide-activated rabbit IgG, mode not given here) [Harlil sequence NTP-7] was tested. Which reduction in tissue necrosis (rat injection sites, histopathology at 24 hours) did it give?
**A.** Its reduction in tissue necrosis (rat injection sites, histopathology at 24 hours) is over 95%.
